Measurements as given in US20140087995A1 (published 2014).
Numbered stars: 1 amine (or outer) side, 2 acyl side, 3 side chain; on linkers, the order of the positions; unused ones are H or OH. Bridge positions count the residues as written; N and C are the ends. Side chains are listed from the residue outwards. Ends that are not written are not given here. * marks the point of attachment. C20 diacid = O=C(O)CCCCCCCCCCCCCCCCCCC(=O)*; γGlu = O=C(O)[C@H](CCC(=O)[*:2])N[*:1]

Assays:
[1] = target: T1, human calcitonin receptor (human, UniProt P30988 25-474); assay: ratio of IC50 at hCTR over IC50 at hAmylin-R (SPA competition assays)
T1 construct: whole, on cells; Membranes of BHK cells stably transfected with the human calcitonin receptor (Assay VII); also called hCTR; hCT
T1 sequence (looked up): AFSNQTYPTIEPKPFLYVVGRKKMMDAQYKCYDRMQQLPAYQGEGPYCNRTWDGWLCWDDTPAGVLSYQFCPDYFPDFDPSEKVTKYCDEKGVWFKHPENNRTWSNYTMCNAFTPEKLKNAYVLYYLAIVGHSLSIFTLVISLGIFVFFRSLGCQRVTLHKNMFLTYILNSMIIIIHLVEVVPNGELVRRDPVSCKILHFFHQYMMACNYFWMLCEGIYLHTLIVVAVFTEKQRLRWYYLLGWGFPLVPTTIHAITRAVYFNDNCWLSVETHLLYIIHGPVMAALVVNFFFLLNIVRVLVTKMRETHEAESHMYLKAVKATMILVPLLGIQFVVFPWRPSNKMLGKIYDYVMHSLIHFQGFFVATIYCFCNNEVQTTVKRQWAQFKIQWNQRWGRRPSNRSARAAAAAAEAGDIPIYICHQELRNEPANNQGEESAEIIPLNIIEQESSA
Method: The resulting pellet was resuspended, homogenized and centrifuged (20.000 rpm, 15 min) in a buffer containing 20 mM Na-HEPES and 0.1 mM EDTA (pH 7.4, buffer 2). The resulting pellet was resuspended in buffer 2 and protein concentration was measured (BCA protein Assay, Pierce). The homogenate was kept cold during the whole procedure. The membranes were kept at −80° C. until use. The assay was performed in a 384 well Optiplate (PerkinElmer) in a total volume of 40 ul. Membranes were mixed with SPA beads. Final concentration of membranes 35 ng/μL final and SPA beads was 0.05 mg/well. Test-compounds were dissolved in DMSO and further diluted in assay buffer (50 mM Hepes, pH 7.4, 1 mM CaCl2, 5 mM MgCl₂, 0.1% OA and 0.02% Tween20). […] The final mixture was incubated with shaking at 400 rpm for 120 min at 25° C. prior to centrifugation (1500 rpm, 10 min). Samples were analyzed on TopCounter™ (Packard). The IC₅₀ was calculated using (one site binding competition analysis) GraphPad Prism5 as a measure of receptor affinity.
Membranes were prepared in the following way; the cells were rinsed with PBS and incubated with Versene for approximately 5 min before harvesting. The cells were flushed with PBS and the cell-suspension was centrifuged for 5 min at 1000 rpm. Cells were homogenized (Ultrathurrax) in a buffer containing 20 mM Na-HEPES and 10 mM EDTA (pH 7.4) and centrifuged at 20.000 rpm for 15 min. The resulting pellet was resuspended, homogenized and centrifuged (20.000 rpm, 15 min) in a buffer containing 20 mM Na-HEPES and 0.1 mM EDTA (pH 7.4, buffer 2). The resulting pellet was resuspended in buffer 2 and protein concentration was measured (BCA protein Assay, Pierce). The homogenate was kept cold during the whole procedure. The membranes were kept at −80° C. until use. Assay was performed in a 384 well Optiplate (PerkinElmer) in a total volume of 40 ul. Membranes were mixed with SPA beads.

[2] = target: T1, human calcitonin receptor; assay: SPA competition against 125I-calcitonin, membranes of BHK cells with human calcitonin receptor (Assay VII)
Method in brief: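 BHK hCTR membranes 35 ng/μL + SPA beads 0.05 mg/well; buffer 50 mM Hepes pH 7.4, 1 mM CaCl2, 5 mM MgCl₂, 0.1% OA, 0.02% Tween20. 120 min, 25° C., shaking. Scintillation count; IC50 by one-site binding competition.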

B1: N^ε1-[(4S)-4-carboxy-4-(19-carboxynonadecanoylamino)butanoyl]-[Asp14,Arg17,Pro21,Pro27,Pro34,Glu35]-h-amylin (peptide)
peptide: K([γGlu-C20 diacid])CNTATCATQRLADFLRHSSPNFGAIPSSTNVGPETY-NH2
modifications: disulfide 2-7; N-terminus assumed
SMILES: CC[C@H](C)[C@H](NC(=O)[C@H](C)NC(=O)CNC(=O)[C@H](Cc1ccccc1)NC(=O)[C@H](CC(N)=O)NC(=O)[C@@H]1CCCN1C(=O)[C@H](CO)NC(=O)[C@H](CO)NC(=O)[C@H](Cc1c[nH]cn1)NC(=O)[C@H](CCCNC(=N)N)NC(=O)[C@H](CC(C)C)NC(=O)[C@H](Cc1ccccc1)NC(=O)[C@H](CC(=O)O)NC(=O)[C@H](C)NC(=O)[C@H](CC(C)C)NC(=O)[C@H](CCCNC(=N)N)NC(=O)[C@H](CCC(N)=O)NC(=O)[C@@H](NC(=O)[C@H](C)NC(=O)[C@@H]1CSSC[C@H](NC(=O)[C@@H](N)CCCCNC(=O)CC[C@H](NC(=O)CCCCCCCCCCCCCCCCCCC(=O)O)C(=O)O)C(=O)N[C@@H](CC(N)=O)C(=O)N[C@@H]([C@@H](C)O)C(=O)N[C@@H](C)C(=O)N[C@@H]([C@@H](C)O)C(=O)N1)[C@@H](C)O)C(=O)N1CCC[C@H]1C(=O)N[C@@H](CO)C(=O)N[C@@H](CO)C(=O)N[C@H](C(=O)N[C@@H](CC(N)=O)C(=O)N[C@H](C(=O)NCC(=O)N1CCC[C@H]1C(=O)N[C@@H](CCC(=O)O)C(=O)N[C@H](C(=O)N[C@@H](Cc1ccc(O)cc1)C(N)=O)[C@@H](C)O)C(C)C)[C@@H](C)O
[1]
  Ratio hCT/hAmylin binding: 16.7
[2]
  IC50: 3.27 nM

B2: N^ε1-[(4S)-4-carboxy-4-(19-carboxynonadecanoylamino)butanoyl]-[Glu14,Arg17,Pro21,Pro27,Arg34,Glu35]-h-amylin (peptide)
peptide: K([γGlu-C20 diacid])CNTATCATQRLAEFLRHSSPNFGAIPSSTNVGRETY-NH2
modifications: disulfide 2-7; N-terminus assumed
SMILES: CC[C@H](C)[C@H](NC(=O)[C@H](C)NC(=O)CNC(=O)[C@H](Cc1ccccc1)NC(=O)[C@H](CC(N)=O)NC(=O)[C@@H]1CCCN1C(=O)[C@H](CO)NC(=O)[C@H](CO)NC(=O)[C@H](Cc1c[nH]cn1)NC(=O)[C@H](CCCNC(=N)N)NC(=O)[C@H](CC(C)C)NC(=O)[C@H](Cc1ccccc1)NC(=O)[C@H](CCC(=O)O)NC(=O)[C@H](C)NC(=O)[C@H](CC(C)C)NC(=O)[C@H](CCCNC(=N)N)NC(=O)[C@H](CCC(N)=O)NC(=O)[C@@H](NC(=O)[C@H](C)NC(=O)[C@@H]1CSSC[C@H](NC(=O)[C@@H](N)CCCCNC(=O)CC[C@H](NC(=O)CCCCCCCCCCCCCCCCCCC(=O)O)C(=O)O)C(=O)N[C@@H](CC(N)=O)C(=O)N[C@@H]([C@@H](C)O)C(=O)N[C@@H](C)C(=O)N[C@@H]([C@@H](C)O)C(=O)N1)[C@@H](C)O)C(=O)N1CCC[C@H]1C(=O)N[C@@H](CO)C(=O)N[C@@H](CO)C(=O)N[C@H](C(=O)N[C@@H](CC(N)=O)C(=O)N[C@H](C(=O)NCC(=O)N[C@@H](CCCNC(=N)N)C(=O)N[C@@H](CCC(=O)O)C(=O)N[C@H](C(=O)N[C@@H](Cc1ccc(O)cc1)C(N)=O)[C@@H](C)O)C(C)C)[C@@H](C)O
[1]
  Ratio hCT/hAmylin binding: 28.5
[2]
  IC50: 6.62 nM

B3: N^ε1-[(4S)-4-carboxy-4-(19-carboxynonadecanoylamino)butanoyl]-[Glu14,Arg17,Pro21,Pro27,His34,Glu35]-h-amylin (peptide)
peptide: K([γGlu-C20 diacid])CNTATCATQRLAEFLRHSSPNFGAIPSSTNVGHETY-NH2
modifications: disulfide 2-7; N-terminus assumed
SMILES: CC[C@H](C)[C@H](NC(=O)[C@H](C)NC(=O)CNC(=O)[C@H](Cc1ccccc1)NC(=O)[C@H](CC(N)=O)NC(=O)[C@@H]1CCCN1C(=O)[C@H](CO)NC(=O)[C@H](CO)NC(=O)[C@H](Cc1c[nH]cn1)NC(=O)[C@H](CCCNC(=N)N)NC(=O)[C@H](CC(C)C)NC(=O)[C@H](Cc1ccccc1)NC(=O)[C@H](CCC(=O)O)NC(=O)[C@H](C)NC(=O)[C@H](CC(C)C)NC(=O)[C@H](CCCNC(=N)N)NC(=O)[C@H](CCC(N)=O)NC(=O)[C@@H](NC(=O)[C@H](C)NC(=O)[C@@H]1CSSC[C@H](NC(=O)[C@@H](N)CCCCNC(=O)CC[C@H](NC(=O)CCCCCCCCCCCCCCCCCCC(=O)O)C(=O)O)C(=O)N[C@@H](CC(N)=O)C(=O)N[C@@H]([C@@H](C)O)C(=O)N[C@@H](C)C(=O)N[C@@H]([C@@H](C)O)C(=O)N1)[C@@H](C)O)C(=O)N1CCC[C@H]1C(=O)N[C@@H](CO)C(=O)N[C@@H](CO)C(=O)N[C@H](C(=O)N[C@@H](CC(N)=O)C(=O)N[C@H](C(=O)NCC(=O)N[C@@H](Cc1c[nH]cn1)C(=O)N[C@@H](CCC(=O)O)C(=O)N[C@H](C(=O)N[C@@H](Cc1ccc(O)cc1)C(N)=O)[C@@H](C)O)C(C)C)[C@@H](C)O
notes: also called compound 107
[1]
  Ratio hCT/hAmylin binding: 11.1
[2]
  IC50: 4.28 nM

B4: N^ε1-[(4S)-4-carboxy-4-(19-carboxynonadecanoylamino)butanoyl]-[Glu14,Arg17,Pro21,Pro27,His35]-h-amylin (peptide)
peptide: K([γGlu-C20 diacid])CNTATCATQRLAEFLRHSSPNFGAIPSSTNVGSHTY-NH2
modifications: disulfide 2-7; N-terminus assumed
SMILES: CC[C@H](C)[C@H](NC(=O)[C@H](C)NC(=O)CNC(=O)[C@H](Cc1ccccc1)NC(=O)[C@H](CC(N)=O)NC(=O)[C@@H]1CCCN1C(=O)[C@H](CO)NC(=O)[C@H](CO)NC(=O)[C@H](Cc1c[nH]cn1)NC(=O)[C@H](CCCNC(=N)N)NC(=O)[C@H](CC(C)C)NC(=O)[C@H](Cc1ccccc1)NC(=O)[C@H](CCC(=O)O)NC(=O)[C@H](C)NC(=O)[C@H](CC(C)C)NC(=O)[C@H](CCCNC(=N)N)NC(=O)[C@H](CCC(N)=O)NC(=O)[C@@H](NC(=O)[C@H](C)NC(=O)[C@@H]1CSSC[C@H](NC(=O)[C@@H](N)CCCCNC(=O)CC[C@H](NC(=O)CCCCCCCCCCCCCCCCCCC(=O)O)C(=O)O)C(=O)N[C@@H](CC(N)=O)C(=O)N[C@@H]([C@@H](C)O)C(=O)N[C@@H](C)C(=O)N[C@@H]([C@@H](C)O)C(=O)N1)[C@@H](C)O)C(=O)N1CCC[C@H]1C(=O)N[C@@H](CO)C(=O)N[C@@H](CO)C(=O)N[C@H](C(=O)N[C@@H](CC(N)=O)C(=O)N[C@H](C(=O)NCC(=O)N[C@@H](CO)C(=O)N[C@@H](Cc1c[nH]cn1)C(=O)N[C@H](C(=O)N[C@@H](Cc1ccc(O)cc1)C(N)=O)[C@@H](C)O)C(C)C)[C@@H](C)O
[1]
  Ratio hCT/hAmylin binding: 26.4
[2]
  IC50: 26.1 nM

B5: N^ε1-[(4S)-4-carboxy-4-(19-carboxynonadecanoylamino)butanoyl]-[Glu14,Arg17,Pro21,Pro27,Pro34,Arg35]-h-amylin (peptide)
peptide: K([γGlu-C20 diacid])CNTATCATQRLAEFLRHSSPNFGAIPSSTNVGPRTY-NH2
modifications: disulfide 2-7; N-terminus assumed
SMILES: CC[C@H](C)[C@H](NC(=O)[C@H](C)NC(=O)CNC(=O)[C@H](Cc1ccccc1)NC(=O)[C@H](CC(N)=O)NC(=O)[C@@H]1CCCN1C(=O)[C@H](CO)NC(=O)[C@H](CO)NC(=O)[C@H](Cc1c[nH]cn1)NC(=O)[C@H](CCCNC(=N)N)NC(=O)[C@H](CC(C)C)NC(=O)[C@H](Cc1ccccc1)NC(=O)[C@H](CCC(=O)O)NC(=O)[C@H](C)NC(=O)[C@H](CC(C)C)NC(=O)[C@H](CCCNC(=N)N)NC(=O)[C@H](CCC(N)=O)NC(=O)[C@@H](NC(=O)[C@H](C)NC(=O)[C@@H]1CSSC[C@H](NC(=O)[C@@H](N)CCCCNC(=O)CC[C@H](NC(=O)CCCCCCCCCCCCCCCCCCC(=O)O)C(=O)O)C(=O)N[C@@H](CC(N)=O)C(=O)N[C@@H]([C@@H](C)O)C(=O)N[C@@H](C)C(=O)N[C@@H]([C@@H](C)O)C(=O)N1)[C@@H](C)O)C(=O)N1CCC[C@H]1C(=O)N[C@@H](CO)C(=O)N[C@@H](CO)C(=O)N[C@H](C(=O)N[C@@H](CC(N)=O)C(=O)N[C@H](C(=O)NCC(=O)N1CCC[C@H]1C(=O)N[C@@H](CCCNC(=N)N)C(=O)N[C@H](C(=O)N[C@@H](Cc1ccc(O)cc1)C(N)=O)[C@@H](C)O)C(C)C)[C@@H](C)O
[1]
  Ratio hCT/hAmylin binding: 38.6
[2]
  IC50: 6.3 nM

B6: N^ε1-[(4S)-4-carboxy-4-(19-carboxynonadecanoylamino)butanoyl]-[Glu14,Arg17,Pro21,Pro27,Pro34,His35]-h-amylin (peptide)
peptide: K([γGlu-C20 diacid])CNTATCATQRLAEFLRHSSPNFGAIPSSTNVGPHTY-NH2
modifications: disulfide 2-7
[1]
  Ratio hCT/hAmylin binding: 21.2
[2]
  IC50: 3.8 nM
